The text below walks through data of publication PMC7225340.

One assay deals with cyno IL21R(1-232)-FLAG-His (cynomolgus monkey). As to the kind of experiment: BLI; ForteBio Octet RED384/HTX, 27 C; 10 mM Tris pH 7.5, 150 mM NaCl, 1 mM CaCl2, BSA, 0.13% Triton X-100; biotinylated human or cyno IL21R(1-232)-FLAG-His captured on streptavidin SAX tips to 2.0 nm; samples in 3-fold dilutions, top 300 nM for mutein fusions; association 20 min, dissociation 1.5 h; global 1:1 fit.
In turn, “recombinant human IL-21 (free wild-type cytokine) (from UniProt Q9HBE4 25-162) (ligand)” gave a Kd of 0.044 nM.

Another assay deals with human IL21R-Fc (bivalent) (human) (UniProt Q9HBE5). As to the kind of experiment: BLI; ForteBio Octet RED384/HTX, 27 C; 10 mM Tris pH 7.5, 150 mM NaCl, 1 mM CaCl2, BSA, 0.13% Triton X-100; receptor reagent bivalent IL21R-Fc (how it was held is not told); samples in 3-fold dilutions, top 10 nM for wild-type IL21 fusions, 300 nM for mutein fusions; association 20 min, dissociation 1.5 h; global 1:1 fit. (BLI is a label-free optical method that tracks binding on a fibre tip over time.)
Sequence of UniProt Q9HBE5 (Q9HBE5 20-232): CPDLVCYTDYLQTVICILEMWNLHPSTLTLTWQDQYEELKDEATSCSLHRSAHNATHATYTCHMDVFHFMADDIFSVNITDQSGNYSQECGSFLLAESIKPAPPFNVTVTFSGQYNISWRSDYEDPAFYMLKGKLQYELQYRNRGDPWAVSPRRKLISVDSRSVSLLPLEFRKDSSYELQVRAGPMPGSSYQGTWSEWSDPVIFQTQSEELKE
Substance anti-PD-1 mAb x IL-21 R5A, homodimer displayed a Kd of 0.24 nM.
The same measure, in the same setting: the figure for anti-PD-1 mAb x IL-21 K73D, homodimer is 0.44 nM; for anti-PD-1 mAb x IL-21 Q12E, homodimer it is 0.031 nM; for anti-PD-1 mAb x IL-21 R5Q, homodimer it is 2.1 nM.
On the same count and under the same terms, then anti-PD-1 mAb x IL-21 K72P, homodimer, with 9 nM.
On the same count and under the same terms, the figure for anti-PD-1 mAb x IL-21 P79D, homodimer is 0.32 nM; for anti-PD-1 mAb x IL-21 R76P, homodimer it is 0.4 nM.
The substance anti-PD-1 mAb x IL-21 K73P, homodimer displayed a Kd of 2 nM.
anti-PD-1 mAb x IL-21 Q12V, homodimer had a Kd of less than 2.2 nM.
Same read-out and setting: then anti-PD-1 mAb x IL-21 Q12S, homodimer, with 0.32 nM; and anti-PD-1 mAb x IL-21 K73G, homodimer, with 0.25 nM.
Take anti-PD-1 mAb x IL-21 R76N, homodimer: the Kd was 15 nM.
The same measure, in the same setting: the figure for anti-PD-1 mAb x IL-21 Q19D, homodimer is 0.17 nM.
In the case of anti-PD-1 mAb x IL-21 K73H, homodimer, the Kd is 0.19 nM.
Same read-out and setting: then anti-PD-1 mAb x IL-21 L13D, homodimer, with 11 nM; and anti-PD-1 mAb x IL-21 K73S, homodimer, with 0.17 nM.
The same measure, in the same setting: the figure for anti-PD-1 mAb x IL-21 R65P, homodimer is 0.9 nM; for anti-PD-1 mAb x IL-21 Q12T, homodimer it is less than 0.26 nM; for anti-PD-1 mAb x IL-21 R76D, homodimer it is 12 nM.
Still for that read-out and setting: then “anti-PD-1 mAb x IL-21 K77G, homodimer (from UniProt Q9HBE4 25-162)”, with 0.66 nM; and anti-PD-1 mAb x IL-21 K75G, homodimer, with 0.16 nM.
In turn, anti-PD-1 mAb x IL-21 R76L, homodimer came in with a Kd of 0.2 nM.
As for anti-PD-1 mAb x IL-21 K72G, homodimer, the Kd was 0.25 nM.
Still for that read-out and setting: then anti-PD-1 mAb x IL-21 K72D, homodimer, with 0.24 nM; and anti-PD-1 mAb x IL-21 K73E, homodimer, with 0.073 nM; and anti-PD-1 mAb x IL-21 K75P, homodimer, with 1 nM.
The same measure, in the same setting: the figure for anti-PD-1 mAb x IL-21 R65G, homodimer is 0.13 nM; for anti-PD-1 mAb x IL-21 Q12N, homodimer it is 0.38 nM.
On the same count and under the same terms, the figure for anti-PD-1 mAb x IL-21 R76H, homodimer is 2 nM; for anti-PD-1 mAb x IL-21 Q12A, homodimer it is 0.23 nM.
anti-PD-1 mAb x IL-21 R76G, homodimer displayed a Kd of 2 nM.
The substance anti-PD-1 mAb x IL-21 R76M, homodimer registered a Kd of 0.6 nM.
For anti-PD-1 mAb x IL-21 I8S, homodimer, the Kd amounted to 4 nM.
The substance anti-PD-1 mAb x IL-21 K73A, homodimer showed a Kd of 0.053 nM.
On to anti-PD-1 mAb x IL-21 R76K, homodimer, for which the Kd came to 0.2 nM.
The same measure, in the same setting: the figure for anti-PD-1 mAb x IL-21 Q12D, homodimer is 0.42 nM; for anti-PD-1 mAb x IL-21 K73Q, homodimer it is 0.069 nM.
Still for that read-out and setting: then anti-PD-1 mAb x IL-21 K73I, homodimer, with 0.17 nM.
